The results in this text go back to article PMC10728069.

One data set relates to GST-MYBS1 (rice). The data set is described as follows: pull-down. Particulars: buffer not stated.
Data set [1] concerns the target His-MoSPAB1ΔSP (Magnaporthe oryzae) (UniProt G4N0C3). The data set is described as follows: pull-down. The following applies: buffer not stated.

As for Bsr-d1 promoter 1689 bp, the binding signal (fold of bound GST-MYBS1) with GST-MYBS1 (rice) is 0.65. This substance also registered a binding signal (fold of bound MoSPAB1ΔSP) in data set [1] of 1.11.
